Data published in PMC3999168.

Test system: LL-37 (native) (human)
Experiment: EMSA
Conditions: EMSA with 5' 6-FAM PCR products, as previously published; buffer, salt, pH and temperature not in the material

## lecB fragment
  Kd: 12.8 µM

## algT (algU) fragment
  Kd: 12.8 µM

## mucA fragment
  Kd: 12.8 µM
